{"source": "the nanobody polyreactivity screen of Harvey et al. (2022)"}
{"assay": "yeast display, Sf9 membrane polyspecificity reagent, FACS + sequencing; frameworks hold sequencing errors", "summary_of_the_method": "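Genes from sorted yeast were amplified by colony PCR, read by MiSeq 2 × 250 sequencing and filtered on CDR length. These cells carried a synthetic nanobody library in Saccharomyces cerevisiae BJ5465 and were sorted by FACS into low and high (top ~1%) gates on anti-HA and streptavidin fluorescence. Polyreactivity is labelled according to the gate of origin.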"}
{"sequence": "QVQLVESAGGLVQAGGSLRLICAASGSIVASYPKGWYRQAPGKERELVAAISDGGGRTYYADSVKGRFTISRDNAKNTVYLQMNSLKPEDTAVYYCAAYAVYTYRRARVYWGQGTQVTVSS", "polyreactivity (PSR sort gate)": "high polyreactivity"}
{"sequence": "QVQLVESAGGLVQAGGSLRLICDASGSTFGYYAIGWYRQAPGKEREVVAVINKSGGRTYYADSVKGRFTISRDNAKNTVYLQMNSLNPVDTAVYFCATRVTSTRHDYWGQGTQVTVSS", "polyreactivity (PSR sort gate)": "high polyreactivity"}
{"sequence": "QVQLVESAGGLVQAGGSLRLSCAASGIILYYYAMGWYRHAPGKERELVAAISSGGNTYYADSVKGRFTISRDNAKNTVYLQMNSLKPEDTAVYYCAAVTVIGGEYDYWGQGTQVTVSS", "polyreactivity (PSR sort gate)": "low polyreactivity"}
{"sequence": "QVQLVESAGGLVQAGGSLRLSCAASGLTFSIYALGWYRQAAGKERELVAAITGRGGRTYYADSVKGRFPISRDNAKNTVYLQMNTLKPDDTAVYYCAARYRGTDFDYWGQGTQVTVSS", "polyreactivity (PSR sort gate)": "high polyreactivity"}
{"sequence": "QVQLVESAGGLVQAGGSLRLSCAASGLTFVRYGMGWYRQAPGKERELVAAITSDDSTYYADSVKGSFTISRDNAQNTVYLQMNSLNPEDTAVYYCAARYTLYDTGESSRTYTGFIYWGLGTQVTVSS", "polyreactivity (PSR sort gate)": "low polyreactivity"}
{"sequence": "QVQLVESAGGLVQAGGSLRLSCAASGNFGYNAIAWNRQAPGKETELVAAITSSGTSTYYADSVKGRLTISRDNAKNTVYLQMNSLKPEDTAVYYCAALPSGTWTGFGYWGQGTQVTVSS", "polyreactivity (PSR sort gate)": "low polyreactivity"}
{"sequence": "QVQLVESAGGLVQAGGSLRLSCAASGRIFNSNAMGWYRQAPGKERELVASITSRGDSTFYADSVKGRFTISRDTAKNTVYLQMNSLKPEDTAVYYCAANGLYYRTPPVYSYDYWGQGTQVTVSS", "polyreactivity (PSR sort gate)": "low polyreactivity"}
{"sequence": "QVQLVESAGGLVQAGGSLRLSCAASGRIFPYNVIGWYRQAPGKERELVAAISSGGTTDYADSVKGRFTISRDNAKNTVYLQMNSLKPEDTAVYYCAATYVYWTWGYDYWGQGTQVTVSS", "polyreactivity (PSR sort gate)": "low polyreactivity"}
{"sequence": "QVQLVESAGGLVQAGGSLRLSCAASGRIYGIYAMGWYRQAPGKERELVASITDGTITNYADSVKGRFTISRDNAKNTVYLQKNSLKPEDTAVYYCAAGTQAHAYVVRPIEMDYWGQGTQVTVSS", "polyreactivity (PSR sort gate)": "low polyreactivity"}
{"sequence": "QVQLVESAGGLVQAGGSLRLSCAASGRNLYQYAMGWYRQAPGKERELVAAITWNGGSTYYADSVKGRFTISRDNAKNTVYLQINSLKPEDTAVYYCAADSVRPWYAYKAHDYWGQGTQVTVSS", "polyreactivity (PSR sort gate)": "low polyreactivity"}
{"sequence": "QVQLVESAGGLVQAGGSLRLSCAASGRTFCGNAMGWYRQAPGKERELVAAITSGGSTYYADSVKGRFTISRDNAKNTVYLQMNSLKPEDTAVYYCATRRIYKWYRYYYWGQGTQVTVSS", "polyreactivity (PSR sort gate)": "high polyreactivity"}
{"sequence": "QVQLVESAGGLVQAGGSLRLSCAASGRTFIQYAMGWYRQAPGKERELVAVIRWSGGRTYYADTVKGRFTISRDNAKNTVYLQMNSLKPEDTAVYYCAKRSGSTFDWGQGTQVTVSS", "polyreactivity (PSR sort gate)": "high polyreactivity"}
{"sequence": "QVQLVESAGGLVQAGGSLRLSCAASGRTFVGNAMGWYRQAPGTERELVADITWSGDITYYADSVKGRFTISRDNAKNTVYLQMNSLKPDDTAVYYCAADYHRRRTDYDYWGQGTQVTESS", "polyreactivity (PSR sort gate)": "low polyreactivity"}
{"sequence": "QVQLVESAGGLVQAGGSLRLSCAASGRTLYRYAMGWYSQAPGKERELVAAIRWSGGSTYYADSVKGRFTISRDNAKNTVYLQMNSLKPEDTAVYYCNAGRSWRRTHYDYWGQGTQVTVSS", "polyreactivity (PSR sort gate)": "high polyreactivity"}
{"sequence": "QVQLVESAGGLVQAGGSLRLSCAASGRTSDGYAMGWSRQAPGKERELVAGITEGGGDTYYADSVKGRFTISRDNAKNTVYLQMNSLKTEDTAVYYCAKDLRRYLSWWYRYPYDYWGQGTQVTVSS", "polyreactivity (PSR sort gate)": "low polyreactivity"}
{"sequence": "QVQLVESAGGLVQAGGSLRLSCAASGRTSVIYAMGWYRQAPGKERELVASIRRGGSTSYADSVKGRFTISRDNAKNTVYLQMNSLKPEDTAVYYCARETLGGTYLGDYWGQGTQVTVSS", "polyreactivity (PSR sort gate)": "high polyreactivity"}
{"sequence": "QVQLVESAGGLVQAGGSLRLSCAASGSILTSYAMGWYRQAPGKERELVAAINGSGGSTFYADSVKGRFTISRDNAKNTVYLQMNSLKPEDTAVYYCNTGGPRGTTYDYWGQGTQVTVSS", "polyreactivity (PSR sort gate)": "low polyreactivity"}
{"sequence": "QVQLVESAGGLVQAGGSLRLSCAASGSLFSLYAMGWYRQAPGKERELVAAITQSGGTKFYADSVKGRFTISRDNAKNTVYLQMNRLKPEDTAVYYCAAEWYRCYVPLGVAGEYDYWGQGTQVTVSS", "polyreactivity (PSR sort gate)": "low polyreactivity"}
{"sequence": "QVQLVESAGGLVQAGGSLRLSCAASGSTFGLNAMGRYRQAPGKERELVAAITRSGATTYYADSVKGRFTISRDNAKNTVYLKMNSLKPEDTAVYYCNKVYRPYTKRYYWGQGTQVTVSS", "polyreactivity (PSR sort gate)": "high polyreactivity"}
{"sequence": "QVQLVESAGGLVQAGGSLRLSCAASGSTFTYKGMGWYRQAPGKERELVASISSRGGSTYYADSVKGRFTISRDNAKNTVYLQMNSLKPDDTAVYYCAAVARARARTPWLGRGYWGQVTQVTVSS", "polyreactivity (PSR sort gate)": "high polyreactivity"}
{"sequence": "QVQLVESAGGLVQAGGSLRLSCAASGSTFYAYALGWYRQAPGKERELVAAISSDGTNYADSVKGRFTISRDNAKNTVYLQMNSLKPEDTSVYYCDADLLLYSSQDNDYWGQGTQVPVSS", "polyreactivity (PSR sort gate)": "low polyreactivity"}
{"sequence": "QVQLVESAGGLVQAGGSLRLSCAASGSTLHYYAMGRYRQAPGKERELVAGISGSGGSTYYADSVKGRFTISRDNAKNTVYLQMNSLKPEDTAVYYCAADAYVSSQPMDYWGQGTQVTVSS", "polyreactivity (PSR sort gate)": "high polyreactivity"}
{"sequence": "QVQLVESAGGLVQAGGSLRLSCAASGSTLYGYVMGWYRQAPGKERELVAAITWSSGYTYYADSVKGRFTISRDNAKITVYLQMNILKPVDTAVYYCAVRDRSPYGYYYWGQGTQVTVSS", "polyreactivity (PSR sort gate)": "low polyreactivity"}
{"sequence": "QVQLVESAGGLVQAGGSLRLSCAPSGFTFALYAMRWYRQAPGNERELVAANTRSGRTKYADSVKGRFTISRDNAKNTVYLQMNSLKPEDTAVYYCAALFRYYVTTRFNYWGQGTQVTVSS", "polyreactivity (PSR sort gate)": "high polyreactivity"}
{"sequence": "QVQLVESAGGLVQAGGSLRLSCDASGRILKYYDIGWYRQAPGKEWELVAAISVSGTSTYYADSVKGRFTISRDNAKNTVYLQMNSLKPEDTAVYYCATATGRYSFDYWGQGTQVTVSS", "polyreactivity (PSR sort gate)": "low polyreactivity"}
{"sequence": "QVQLVESAGGLVQAGGSLRLSCDASGRTFRYYVMGWYRQAPGNERELVAAISWSGCRTNYADSVKGRYTISGDNAKNTVYLQMNSLKPEDSAVYYCNAPRPALRRYDYWGQGTQVTVSS", "polyreactivity (PSR sort gate)": "high polyreactivity"}
{"sequence": "QVQLVESAGGLVQAGGSLRLSCPASGSIFQPYAMGWYRQAPGKERELVAAINGRGGSTHYADSVKGRFTISRDNAKNTVYLQMNSLKPEDTAVYYCAARYYRDYRWYTYAYDYWGQGTQVTVSS", "polyreactivity (PSR sort gate)": "high polyreactivity"}
{"sequence": "QVQLVESAGGLVQAGGSLRLSSAASGRIFLYYAMGWYRQAPGKEREFVAAITYIGGSTYYADSVKGRFTISRDNAKNTVYLQMNSLKPEDTAVYWGEGTQVTVSS", "polyreactivity (PSR sort gate)": "low polyreactivity"}
{"sequence": "QVQLVESAGGLVQAGGSLSISCAASGLTLTRNAMGWYRQAPGKERELVAAISGRGGSTYYADSVKGRFTISRDNAKNTVYLQMNSLKPEDTAVYYCAATVQYSPIYDYWGQGTQVTVSS", "polyreactivity (PSR sort gate)": "high polyreactivity"}
{"sequence": "QVQLVESAGGLVQAGGSLSLSCAASAFTYVCNRMGWNRQAPGKERELVAAITGSGSTNYADSVKGRFTISRDNAKNTVYLQMNSLKPEDTAVYYCATSDRQVKYDYWGQGTQVPVSS", "polyreactivity (PSR sort gate)": "low polyreactivity"}
{"sequence": "QVQLVESAGGLVQAGGSLSLSCAASGGMFTGYAMGWDRQAPGTERELVAAINTGGNTYYADSVKGRFTISRDNAKNTVYLQMNSLKPEDTAVYYCAAVYFPRSNTARRYGYWGQGTQVTVSS", "polyreactivity (PSR sort gate)": "high polyreactivity"}
{"sequence": "QVQLVESAGGLVQAGGSLSLSCAASGINFAWYVMGWYRQEPGKERELVAAITQSGGSTFYADSVKGRFTISRDNAKNTVYLQMNSLKPEDTAVYYCAAESRSTWIHSRDYWGQGTQVTVSS", "polyreactivity (PSR sort gate)": "low polyreactivity"}
{"sequence": "QVQLVESAGGLVQAGGSLSLSCAASGITFYRYVMGWYRQAPGKERELVAAISVSGGRTYYADSVKGRFTISRDNAKNTVYLQMNSLKPEDTAVYYCAARWAGSKSATVQYDYWGQGTQVTVSS", "polyreactivity (PSR sort gate)": "high polyreactivity"}
{"sequence": "QVQLVESAGGLVQAGGSLSLSCAASGTFYLYARGWYRQAPGKQRELVAAISGSGSTNYADSVKGRFTISRDNAKNTVYLQMNSLKPEDTAVYYCAAYQRYDSVTGARYEYDYWGQGTQVTVSS", "polyreactivity (PSR sort gate)": "low polyreactivity"}
{"sequence": "QVQLVESAGGLVQAGGTLRLSCAASGRIIYRYGMGWYRQAPGKERELVASITRGGSTYYADSVKGRFTISRDNAKNTVYLQMNSLKPEDTAVYYCATKSSAGYDYWGQGTQVTVSS", "polyreactivity (PSR sort gate)": "low polyreactivity"}
{"sequence": "QVQLVESAGGLVQAGGTLRLSCAASGSIFQFYAMGWYRHAPGKERELVAVITTSGVSTYYADSVKGRFTISRDNAKNTVYLQMNSLKPEDTGVYYCAARQWTSASYDYWGQGSQVTVSS", "polyreactivity (PSR sort gate)": "low polyreactivity"}
{"sequence": "QVQLVESAGGLVQAGVSLRLSCAASGLTFVQYAMGWYIQAPGKERELVAAISRSGGSTYYADSVKGRFTISRDNAKNTVYLQMNSMKPEDTAVYYCNAVIWLTSSEYWGQGTQVTVSS", "polyreactivity (PSR sort gate)": "high polyreactivity"}
{"sequence": "QVQLVESAGGLVQEGGSLRLSCAASGRTFYNAMGGYRQAPGKERELVAAISANGGSTTYADSVKGRFTISRDNAKNTVYLQMNSLKPEDTAVYYCNTYYWYSGSPYDYWGQGTQVTVSS", "polyreactivity (PSR sort gate)": "low polyreactivity"}
{"sequence": "QVQLVESAGGLVQEGGSLRLSCAASGSTFPYYAMGWYRQAPGKERELVAAISQNGGSTYYADSVKGRFTISRDNAMNTVYLQMNRLKPEDTAVYYCNADGVGGEYRLSGYAYWGQGTQVTVSS", "polyreactivity (PSR sort gate)": "low polyreactivity"}
{"sequence": "QVQLVESAGGVVQAGGSLRLSCAASGRIFGYNTMGWYRQAPGKERELVAAISGSGASTYYADSVKGRFTISRDNAKNTVYLQMNSLKAEDTAVYYCAAKAYYSTSPYHREHDSWGQGTQVTVSS", "polyreactivity (PSR sort gate)": "low polyreactivity"}
{"sequence": "QVQLVESAGVLVQAGGSLRFSCAPSGIIFPQYAMGWYRQAPGKARELVAAITYSGDGTYYADSVKGRFTISRDNAKYTVYLLMYSLKPDDTAVYYCAAFPRDPYKEYDYWGQGTQLTVSS", "polyreactivity (PSR sort gate)": "low polyreactivity"}
{"sequence": "QVQLVESAGYLVQAAASLRLSCAASGLIFVYYALGWYRQAPGKERELVAFITSVGSTYYGDSVKGRFTISRDNAKYTVYLQMNSVNPEDTAVYYCAAEWEFYGFDYWGQGTQVTVSA", "polyreactivity (PSR sort gate)": "low polyreactivity"}
{"sequence": "QVQLVESAVGLVQAGGSLRLSSAASGFTFLNYAMGSYRQAPGKVRELVAAITWSGGNTYYADSVMGRFTISRDNAKNTVYLQMNSLKPEDTAVYYCAADYRARGKFYWGQGTQVTVSS", "polyreactivity (PSR sort gate)": "high polyreactivity"}
